Assay [1] has as its system UACC-257X2.2 melanoma xenograft. Put plainly: In vivo efficacy, subcutaneous melanoma xenograft, tumor volume / % TGI. On the set-up: species or system mice. Particulars: for % TGI Single Agent BRAFi vs. control / % TGI Single Agent Anti-ETBR ADC vs. control: UACC257-X2.2. On the procedure:
(§1) Next, efficacy studies were performed using the melanoma cells lines in the xenografts mouse models described above. All studies were conducted in accordance with the Guide for the Care and Use of Laboratory Animals (Ref: Institute of Laboratory Animal Resources (NIH publication no. 85-23), Washington, D.C.: National Academies Press; 1996). 10- to 14-week-old female CRL Nu/Nu or NCr nude mice from Charles River Laboratories were inoculated subcutaneously in the dorsal right flank with either 5×10^6 UACC-257X2.2 cells in HBSS with Matrigel or 5×10^6 A2058 cells in HBSS with Matrigel. When tumor volumes reached approximately 200 mm^3 (day 0), animals were randomized into groups of 10 each.
(§2) For single agent efficacy studies, the anti-ETBR ADC candidate Hu5E9v1-ADC was administered as a single intravenous (IV) injection on day 0 at 1 mpk, 3 mpk, or 6 mpk (mg/kg). A control ADC antibody and vehicle control were also administered. Average tumor volumes with standard deviations were determined from 10 animals per group. Tumor volumes were measured twice per week until study end.
To do this, the in vivo efficacy for various combinations of Hu5E9v1-ADC and BRAFi-945 were evaluated against the UACC-257X2.2 melanoma model described above. Tumors were grown to an average size of approximately 200 mm^3, whereupon animals were randomized into groups of 10 each. An appropriate vehicle control (Klucel LF) or BRAFi-945 at doses of 1 mpk, 6 mpk or 20 mpk were administered orally once a day×21 days beginning on study Day 0. A single 1 mpk or 3 mpk dose of Hu5E9v1-ADC or control, a histidine buffer #8, was administered intraveneously (after two doses of 945) via tail vein at study Day 1.
(§3) The average tumor volumes were determined from 10 animals per group. Tumor volumes were measured twice per week until study end. Tumor volumes were measured in two dimensions (length and width) using UltraCal IV calipers (Model 54 10 111, Fred V. Fowler Company; Newton, Mass.). The following formula was used with Excel, version 12.2.8 (Microsoft; Redmond, Wash.) to calculate tumor volume: Tumor Volume (mm3)=[…]
(§4) To analyze the repeated measurement of tumor volumes from the same animals over time, a mixed-modeling Linear Mixed Effects (LME) approach was used (Pinheiro et al. 2009). This approach can address both repeated measurements and a modest drop-out rate due to non-treatment-related termination of animals prior to study end. Cubic regression splines were used to fit a non-linear profile to the time courses of log 2 tumor volume at each dose level. These non-linear profiles were then related to dose within the mixed model. Tumor growth inhibition (TGI) as a percentage of vehicle was calculated as percent area under the fitted curve (AUC) per day in relation to the vehicle, using the following formula:
(§5) Using this formula, a TGI value of 100% indicates tumor stasis, of >1% but <100% indicates tumor growth delay, and of >100% indicates tumor regression. To get uncertainty intervals (UIs) for % TGI, the fitted curve and the fitted covariance matrix were used to generate a random sample as an approximation to the distribution of % TGI. The random sample is composed of 1000 simulated realizations of the fitted-mixed model, where the % TGI has been recalculated for each realization. Here, in the reported UI is the value for which 95% of the time, the recalculated values of % TGI will fall in this region given the fitted model. The 2.5 and 97.5 percentiles of the simulated distribution were used as the […] UIs.

Assay [2] concerns UACC-257X2.2 melanoma cell line. Put plainly: In vitro cell killing, CellTiter-Glo cell viability. Particulars: UACC-257X2.2 (high ETBR copy number), 5 days. The assay is classed as cell-based, human. On the procedure: (§6) The melanoma cell lines A2058 and UACC-257X2.2 were grown in appropriate media at 37° C. and 5% CO2. To assess the effects of Hu5E9v1-ADC on cell viability, cells were plated at 1,500 per well in 50 μL, of normal growth medium in 96-well clear-bottom black plates. Twenty-four hours later, an additional 50 μL, of culture medium with serial dilutions of Hu5E9v1-ADC concentrations was added to triplicate wells. Five days later, cell survival was determined using CellTiter-Glo Luminescent Cell Viability Reagent (G7572; Promega Corporation) and with an EnVision 2101 Mutilabel Reader (Perkin-Elmer).
On the technique in general: ATP-based viability assays read luminescence as a measure of living cells.

Assay [3] has as its system A2058 melanoma cell line. Described as above. The assay is classed as cell-based, human. Conditions: A2058 (low ETBR copy number), 5 days. On the procedure:
as §6

Assay [4] has as its target T1, ETBR (Homo sapiens, UniProt P24530).
T1 sequence (P24530 27-442): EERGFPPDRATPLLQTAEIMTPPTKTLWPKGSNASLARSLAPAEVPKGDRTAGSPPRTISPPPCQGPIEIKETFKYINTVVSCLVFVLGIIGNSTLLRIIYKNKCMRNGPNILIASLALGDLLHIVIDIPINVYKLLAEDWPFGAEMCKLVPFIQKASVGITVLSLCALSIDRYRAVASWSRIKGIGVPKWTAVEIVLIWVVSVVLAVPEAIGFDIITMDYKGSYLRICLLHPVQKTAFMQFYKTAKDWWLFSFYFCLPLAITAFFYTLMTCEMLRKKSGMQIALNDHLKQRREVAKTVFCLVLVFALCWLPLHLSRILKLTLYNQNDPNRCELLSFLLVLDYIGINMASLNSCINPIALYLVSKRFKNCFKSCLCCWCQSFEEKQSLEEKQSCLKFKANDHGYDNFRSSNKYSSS
In words: Scatchard analysis of antibody binding sites per cell with 125I-labeled Hu5E9v1-ADC. Conditions: 4 h on ice, estimated. Here is the method: A determination of antibody binding sites per cell was performed (Scatchard analysis): The affinity constant and the number of cell surface binding sites for each antibody were estimated by incubating the melanoma cells for 4 h on ice with a fixed concentration of ^125I-labeled Hu5E9v1-ADC combined with increasing concentrations of unlabeled Hu5E9v1-ADC. The data were analyzed by nonlinear curve fitting using an analysis program method.

Assay [5] concerns A2058 melanoma xenograft. In words: In vivo efficacy, subcutaneous melanoma xenograft, tumor volume / % TGI. Set-up: species or system mice. Conditions: for % TGI Single Agent Anti-ETBR ADC vs. control: A2058. Here is the method: as §1, §2, §3, §4, §5
Tumors were grown to an average size of approximately 200 mm^3, whereupon animals were randomized into groups of 10 each. […] A single dose of Hu5E9v1-ADC at either 3 mpk or 6 mpk or control, a histidine buffer #8, was administered intraveneously into the tail vein on day 1 (after three doses of RG7204).
To do this, the in vivo efficacy for various combinations of Hu5E9v1-ADC and MEKi-623 and/or MEKi-973 were evaluated against A2058 and SK-MEL-23 and IPC-298 melanoma in vivo models, performed as described above in Example 4. An appropriate methylcellulose tween vehicle control (0.5% methylcellulose, 0.2% Tween-80 (MCT) or MEK inhibitor at doses of 1 mpk, 3 mpk or 7.5 mpk were administered orally once a day×21 days beginning on study Day 0. A single 3 mpk or 6 mpk dose of Hu5E9v1-ADC or control, a histidine buffer #8, was administered intraveneously (after two doses of a MEK inhibitor) via tail vein at study Day 1.

Assay [6] deals with COLO 829 melanoma xenograft. The assay is described as above. Set-up: species or system mice.
Description: The average tumor volumes were determined from 10 animals per group. Tumor volumes were measured twice per week until study end. Tumor volumes were measured in two dimensions (length and width) using UltraCal IV calipers (Model 54 10 111, Fred V. Fowler Company; Newton, Mass.). The following formula was used with Excel, version 12.2.8 (Microsoft; Redmond, Wash.) to calculate tumor volume: Tumor Volume (mm3)=(length×width)×0.5
To get uncertainty intervals (UIs) for % TGI, the fitted curve and the fitted covariance matrix were used to generate a random sample as an approximation to the distribution of % TGI. The random sample is composed of 1000 simulated realizations of the fitted-mixed model, where the % TGI has been recalculated for each realization. Here, in the reported UI is the value for which 95% of the time, the recalculated values of % TGI will fall in this region given the fitted model. The 2.5 and 97.5 percentiles of the simulated distribution were used as the upper and lower UIs.
The COLO 829 xenograft model was chosen as representative of medium levels of ETBR expression, further increasing the stringency of the combination studies. Tumors were grown to an average size of approximately 200 mm^3, whereupon animals were randomized into groups of 9 each. An appropriate vehicle control (Klucel LF) or G00044364.1-12 (RG7204) at doses of 10 mpk or 30 mpk were administered orally twice a day for 21 days starting on day 0.
Where [7] appears, read: Anti-ETBR ADC single dose 1 mg/kg.
The mark [8] stands for this setting: Anti-ETBR ADC single dose 3 mg/kg.

Turning to `Nc1ncnc2c(C(=O)Nc3c(Cl)ccc(NS(=O)(=O)CCCF)c3F)csc12` [BRAFi-945, 4-amino-N-(6-chloro-2-fluoro-3-(3-fluoropropylsulfonamido)phenyl)thieno[3,2-d]pyrimidine-7-carboxamide], the “% TGI Single Agent BRAFi vs. control” value is 66% in assay [1] (BRAFi Qdx21 1 mg/kg), 109% in assay [1] (BRAFi Qdx21 6 mg/kg) and 136% in assay [1] (BRAFi Qdx21 20 mg/kg).

B1: Hu5E9v1-ADC: anti-ETBR antibody Hu5E9v1 conjugated to MMAE through a vc linker (antibody drug conjugate) (conjugate)
VH: EVQLVESGGGLVQPGGSLRLSCAASGYTFTSYWMQWVRQAPGKGLEWIGTIYPGDGDTSYAQKFKGRATLSTDKSKNTAYLQMNSLRAEDTAVYYCARWGYAYDIDNWG
VL: DIQMTQSPSSLSASVGDRVTITCKSSQSLLDSDGKTYLNWLQQKPGKAPKRLIYLVSKLDSGVPSRFSGSGSGTDFTLTISSLQPEDFATYYCWQGTHFPYTFGQGTKVEIK
For the molecule B1, the “cell killing by ADC titration relative to control ADC” value in assay [2] and in assay [3] was “specific cell killing relative to control ADC” each time. The “% TGI Single Agent Anti-ETBR ADC vs. control” value in assay [1] (setting [7]) worked out at 69%; in assay [1] (setting [8]), 112%; in assay [5] (setting [8]) it was 39%; in assay [5] (Anti-ETBR ADC single dose 6 mg/kg), 85%; in assay [6] (setting [7]), 31%; in assay [6] (setting [8]) it was 33%. Also, the “single agent efficacy, tumor volume” value in assay [1] (single IV dose 1 mg/kg on day 0) is “efficacy was not apparent”; in assay [1] (single IV dose of 3 and 6 mg/kg on day 0) it was “sustained tumor regression”. Also, the “number of Hu5E9v1-ADC binding sites” value in assay [4] (A2058 cells) is recorded as 1,582 sites per cell; in assay [4] (UACC-257X2.2 cells) it was 33,939 sites per cell. Besides, the “single agent efficacy, tumor burden” value in assay [5] (single IV dose 3 mg/kg) was “Efficacy was not apparent”; in assay [5] (single IV dose 6 mpk, relative to matching dose of control ADC or vehicle), “partial reduction in tumor burden”.

(Values after US20140341916A1, “THERAPEUTIC COMBINATIONS AND METHODS OF TREATING MELANOMA” (Genentech, Inc., priority 2011, published 2014).)
